According to patent US20240117326:

B1: H. modesticaldum NifH (Genbank Accession No. WP_012282218) (protein)
chain: MRQIAIYGKGGIGKSTTTQNTVSALAEMGKKVMIVGCDPKADSTRLILHSKAQATVMDLAREKGTVEDLELSDVLLTGFADIRCAESGGPEPGVGCAGRGVITAINFLEENGAYTPDLDYVFYDVLGDVVCGGFAMPIRENKAQEIYIVTSGEMMAMYAANNIARGILKYASSGKVRLGGLICNSRKVDKEYELIDELATRLGTQMIHFLPRDNQVQRAELRRMTVIEYSPDHPQADEYRALAKKIDENKKLVIPTPLTMDELEDLLIQYGILEDEETAAAKLG
B2: M. infernus NifH (Genbank Accession No. WP_013099459) (protein)
chain: MSFDEIAPNAKKVAIYGKGGIGKSTTTQNTAAALAYYYKLKGMIHGCDPKADSTRMILHGKPQETVMDVLREEGEEGVTLEKVRKVGFCGIYCVESGGPEPGVGCAGRGVITAVNLMKELGGYPDDLDFLFFDVLGDVVCGGFAMPLRDGLAKEIYIVSSGEMMALYAANNIAKGILKYAEQSGVRLGGIICNSRNVDGERELMEEFCDKLGTKLIHFIPRDNIVQKAEFNKMTVVEFAPDHPQALEYKKLGKKIMDNDELVIPTPLSMDELEKLVEKYGLYDK
B3: C. tepidum NifH (Genbank Accession No. WP_010933198) (protein)
chain: MRKVAIYGKGGIGKSTTTQNTVAGLAEAGKKVMVVGCDPKADSTRLLLGGLQQKTVLDTLREEGEEVELEDIIKEGYRNTRCTESGGPEPGVGCAGRGIITSVNLLEQLGAYDDEWELDYVFYDVLGDVVCGGFAMPIRDGKAEEIYIVCSGEMMAMYAANNICKGILKYADAGGVRLGGLICNSRKVDNEREMIEELARRLGTQMIHFVPRDNFVQRAEINRKTVIDFDPTHPQADEYRALAKKIDENKMFVIPKPLEIDELESLLIEFGIAN
B4: M thermautotrophicus NifH (Genbank Accession No. AAB86034) (protein)
chain: MVRKIAIYGKGGIGKSTTQQNTAAAMSYFHGKNVMIHGCDPKADSTRLILGGKMQTTMMDTLRELGEVACTPDKVIETGFGGIKCVESGGPEPGVGCAGRGVITAITLMERHGVYEKDLDFVFFDVLGDVVCGGFAMPVRDGKAEEIYIVASGEMMALYAANNICKGMVKYARQSGVRLGGIICNSRNVDGEKELLEEFCERIGTQMIHFVPRDNIVQKAEFNKKSVIEFDPECNQSQEYRELARKIIENKDFVIPEPMTMDEMEELVVKYGVMD
B5: M laminosus NifH (Genbank Accession No. Q47917) (protein)
chain: MTENIRQIAFYGKGGIGKSTTSQNTLAAMAEMGQRIMIVGCDPKADSTRLMLHSKAQTTVLHLAAERGAVEDLELEEVMLTGFRGVKCVESGGPEPGVGCAGRGIITAINFLEENGAYQDLDFVSYDVLGDVVCGGFAMPIREGKAQEIYIVTSGEMMAMYAANNIARGILKYAHSGGVRLGGLICNSRKVDREAELIENLAERLNTQMIHFVPRDNIVQHAELRRMTVNEYAPDSNQSQEYRALAKKIINNTKLTIPTPMEMDELEALLIEYGILDDDTKHADIIGKPAEASAK
B6: Geobacter sp. NifH (Genbank Accession No. WP_015837436) (protein)
chain: MRQIAIYGKGGIGKSTTTQNTVAGLASIGKKVMIVGCDPKADSTRLILHAKAQSTVMDLVRELGTVEDLELEDVMKVGYGDVKCVESGGPEPGVGCAGRGVITAINFLEENGAYTPDLDFVFYDVLGDVVCGGFAMPIREGKAEEIYIVCSGEMMAMYAANNIAKGILKYATSGKVRLAGLICNARKTDKEYELIDALAKKLGTQMIHFVPRDNQVQRAELRRMTVIEYSPEHPQAQEYRTLAQKIADNKMLVVPTPLEMEELEDLLMEFGIMEAEDESIVGVAEAAAV
B7: Carboxydothermus pertinax NifH (Genbank Accession No. WP_075859892) (protein)
chain: MTRKIAIYGKGGIGKSTTQQNTAAALAYFYGKKVLIHGCDPKADCTRLILGGKPQETVMDTMRELGEDAVTIDRVVKTGFCGIKCVESGGPEPGVGCAGRGVITAISLMEELGAYTPDLDFIFFDVLGDVVCGGFAMPVREGKAQEIYIVASGEMMALYAANNICRGMVKYAEQSGVRLGGIICNSRNVDGERELMEEFCSKIGTQMIHFIPRDNIVQKAEFNRQTVTQFDPNCNQAQEYRELARKIIENDMFVIPKPMTMDEMENLVIKYGLLE

Molecular target: T1, NifD-NifK proteins from K. oxytoca (expressed from MIT2.1 in E. coli JM109)
T1 chain 1: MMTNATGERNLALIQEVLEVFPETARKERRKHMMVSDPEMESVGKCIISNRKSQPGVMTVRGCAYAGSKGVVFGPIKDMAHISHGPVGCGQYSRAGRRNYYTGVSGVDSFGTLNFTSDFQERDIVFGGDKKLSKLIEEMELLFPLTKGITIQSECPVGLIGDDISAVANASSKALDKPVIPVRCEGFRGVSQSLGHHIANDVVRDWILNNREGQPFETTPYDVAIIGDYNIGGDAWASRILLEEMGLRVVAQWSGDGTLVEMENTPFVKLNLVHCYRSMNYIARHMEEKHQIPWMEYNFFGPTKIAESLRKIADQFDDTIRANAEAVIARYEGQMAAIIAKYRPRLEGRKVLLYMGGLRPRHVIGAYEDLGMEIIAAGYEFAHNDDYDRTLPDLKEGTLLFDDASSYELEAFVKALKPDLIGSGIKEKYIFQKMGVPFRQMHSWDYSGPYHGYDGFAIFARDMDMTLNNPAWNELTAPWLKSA
T1 chain 2: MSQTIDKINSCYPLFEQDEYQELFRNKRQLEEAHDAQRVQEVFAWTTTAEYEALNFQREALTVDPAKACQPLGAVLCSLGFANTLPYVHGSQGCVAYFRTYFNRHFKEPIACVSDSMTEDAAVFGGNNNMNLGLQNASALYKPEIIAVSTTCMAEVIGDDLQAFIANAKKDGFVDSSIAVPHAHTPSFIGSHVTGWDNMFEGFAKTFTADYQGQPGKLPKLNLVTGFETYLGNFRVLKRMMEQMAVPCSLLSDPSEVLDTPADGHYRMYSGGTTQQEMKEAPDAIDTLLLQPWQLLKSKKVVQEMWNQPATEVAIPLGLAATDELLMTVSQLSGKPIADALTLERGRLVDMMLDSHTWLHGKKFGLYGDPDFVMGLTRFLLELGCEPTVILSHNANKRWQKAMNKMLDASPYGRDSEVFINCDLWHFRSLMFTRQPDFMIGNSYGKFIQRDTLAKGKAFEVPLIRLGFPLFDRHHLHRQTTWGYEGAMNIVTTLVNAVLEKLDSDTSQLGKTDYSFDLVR

Protein | acetylene reduction assay (ethylene production) in E. coli JM109 with modified MIT2.1
B1 | none of the JM109 strains carrying the modified MIT2.1 plasmids with the NifH variants reduced acetylene, instead showing the same background level of ethylene production as JM109 carrying the negative control plasmid pB-ori
B2 | none of the JM109 strains carrying the modified MIT2.1 plasmids with the NifH variants reduced acetylene, instead showing the same background level of ethylene production as JM109 carrying the negative control plasmid pB-ori
B3 | none of the JM109 strains carrying the modified MIT2.1 plasmids with the NifH variants reduced acetylene, instead showing the same background level of ethylene production as JM109 carrying the negative control plasmid pB-ori
B4 | none of the JM109 strains carrying the modified MIT2.1 plasmids with the NifH variants reduced acetylene, instead showing the same background level of ethylene production as JM109 carrying the negative control plasmid pB-ori
B5 | none of the JM109 strains carrying the modified MIT2.1 plasmids with the NifH variants reduced acetylene, instead showing the same background level of ethylene production as JM109 carrying the negative control plasmid pB-ori
B6 | none of the JM109 strains carrying the modified MIT2.1 plasmids with the NifH variants reduced acetylene, instead showing the same background level of ethylene production as JM109 carrying the negative control plasmid pB-ori
B7 | none of the JM109 strains carrying the modified MIT2.1 plasmids with the NifH variants reduced acetylene, instead showing the same background level of ethylene production as JM109 carrying the negative control plasmid pB-ori
